Residue numbers refer to the chain shown, from its start. Names may count otherwise.
B1: GlaTgs2-V34A: GlaTgs2 variant, valine at position 34 replaced by alanine, SEQ ID NO: 4 (protein, listed as Giardia lamblia)
chain: MSTWLLDSKCVERMKWLFSDLPEEKRVMIKMNEAAFFSVTPAVYADEVARMMRTVLALLGKPPYAVIDGTACVGGDTRLLAKHFDMTVAIERDPETYALLQDNLTTWGVDAKTISGDTAALIPQFWTLIGAVATFSLYLDPPWGGVDYRSQTDIQLTLGSLAVEDVVNRAFEAHLSMKLAVLKLPRNYNCGYLFRKLGKHEVFRITQGNFFVFFVARRGSRVKEHGRTAMLQLRKAREEAKARSEETKEDGETRGSGE
B2: GlaTgs2-V34A, D76L: GlaTgs2 variant with exchanges V34A and D76L, SEQ ID NO: 7 (protein, listed as Giardia lamblia)
chain: B1 chain with D76T
B3: GlaTgs2-V34A, R92A: GlaTgs2 variant with exchanges V34A and R92A, SEQ ID NO: 10 (protein, listed as Giardia lamblia)
chain: B1 chain with R92A
B4: GlaTgs2-V34M: GlaTgs2 variant, valine at position 34 replaced by methionine, SEQ ID NO: 6 (protein, listed as Giardia lamblia)
chain: B1 chain with A34M
B5: GlaTgs2-V34G: GlaTgs2 variant, valine at position 34 replaced by glycine, SEQ ID NO: 5 (protein, listed as Giardia lamblia)
chain: B1 chain with A34G
B6: GlaTgs2-WT: wild type trimethylguanosine synthase 2 from Giardia lamblia, 258 amino acids, SEQ ID NO: 1 (protein, listed as Giardia lamblia)
chain: B1 chain with A34V
B7: GlaTgs2-V34A, D76T: GlaTgs2 variant with exchanges V34A and D76T, SEQ ID NO: 8 (protein, listed as Giardia lamblia)
chain: B1 chain with D76L
B8: GlaTgs2-V34A, D76V: GlaTgs2 variant with exchanges V34A and D76V, SEQ ID NO: 9 (protein, listed as Giardia lamblia)
chain: B1 chain with D76V

How the values were obtained:
[1] = tested on: C=CC[S+](CCC(N)C(=O)O)C[C@H]1O[C@@H](n2cnc3c(N)ncnc32)C(O)[C@H]1O; test: Enzymatic parameters of GlaTgs2-WT with respect to AdoPropen (HPLC-coupled activity assay); assay type: biochemical, Giardia lamblia; details: other: with respect to AdoPropen, pH 8.4, 37.0 °C
Description: (§1) The transfer of the propenyl (AdoPropen), pentenynyl (AdoEnYn) and benzyl (AdoBenzyl) residues carried by the synthetically produced AdoMet analogues onto the N2 atom of the guanosine of m^7GpppA (A=adenine) enzymatically catalysed by the WT-GlaTgs2 (SEQ ID NO: 1) and the proteins of the invention in accordance with SEQ ID NOs: 4-10 was investigated with the aid of a HPLC-coupled activity assay.
(§2) Reaction buffer 2: 50 mM Tris; 10 mM MgCl2; 100 mM NH4OAc; pH 8.4
(§3) MTAN stands for 5′-methylthioadenosine/S-adenosylhomocysteine nucleosidase. LuxS stands for S-ribosylhomocysteine lyase.
(§4) The quantities were adjusted in proportion for larger samples of 10 or 20 μL. The quantity of AdoMet analogue used was matched such that the area of the peak in the chromatogram for a diastereoisomer of the AdoMet analogue corresponded to the area of the signal caused by m^7GpppA. The reaction was in general stopped directly after starting the reaction (t0) and after three hours at 37° C. (t180) and examined using analytical HPLC as well as MALDI-TOF.

[2] = molecular target: T1, Giardia lamblia trimethylguanosine synthase 2 (GlaTgs2) variant GlaTgs2-V34A (V34A), SEQ ID NO: 4 (Giardia duodenalis, UniProt A8BW33, V34A); test: Enzymatic parameters of GlaTgs2-V34A with respect to AdoPropen and AdoMet (HPLC-coupled activity assay); assay type: biochemical
T1 construct: HPLC-coupled cap N2 methyl/alkyl transfer assay with m7GpppA, helper enzymes MTAN and LuxS
Description: as §1, §2, §3, §4

[3] = Thermostability (T50, 15 min incubation, residual activity, Boltzmann fit); assay type: physicochemical; details: for T50 (thermostability): 15 minutes incubation, Table 4; for T50 (15 min): temperature at which enzyme loses 50% of its activity after 15 minutes incubation, Table 3
Description: The stability of a protein characterizes its ability to tolerate denaturing influences, such as an increase in the environmental temperature, within certain limits and to maintain the native conformation. The T50 value can be used as a measure of the thermostability.
is the temperature at which an enzyme loses 50% of its activity after 15 minutes incubation. In order to determine the T50 value, the protein to be analysed is heated for 15 minutes to different temperatures in a thermocycler while a sample of the protein is incubated on ice. Next, activity tests are carried out with the previously heated proteins. […] After normalizing the values,
can be obtained using a Boltzmann fit and “Origin” software.

[4] = tested on: m^7GpppA; test: HPLC-coupled activity assay: enzymatic transfer of the residue of an AdoMet analogue onto N2 of the guanosine of m^7GpppA; assay type: biochemical; details: for m^7GpppA transformed: same quantity of enzyme; for TTN: Total Turnover Number
Description: as §1, §2, §3, §4

[5] = with respect to AdoPropen, Table 3

Row | Molecule | T50 (thermostability) [3] | TTN ([4]; AdoPropen, Table 2) | also measured
1 | Giardia lamblia trimethylguanosine synthase 2 (GlaTgs2-WT), wild type, SEQ ID NO: 1 (Giardia lamblia ATCC 50803) | – | – | Km [1]: 151 ± 19 μM μM; kcat [1]: 0.0015 ± 0.0013 s⁻¹
2 | C=CC[S+](CCC(N)C(=O)O)C[C@H]1O[C@@H](n2cnc3c(N)ncnc32)C(O)C1O (stereo in doubt) [AdoPropen, 5′-[(S)-[(3S)-3-amino-3-carboxypropyl]prop-2-enylsulphonio]-5′-deoxyadenosine] | – | – | affinity for AdoPropen ([2]; compared with the wild type enzyme GlaTgs2-WT): higher affinity; kcat ([2]; with respect to AdoPropen, GlaTgs2-V34A): 0.003 ± 0.0013 s⁻¹
3 | B1 | 40.4 ± 0.2 | 10 ± 2 | T50 (15 min) [3]: 40.4 ± 0.2 °C; transfer of benzyl ([4]; AdoBenzyl as AdoMet analogue): a transfer of benzyl was observed; m^7GpppA transformed ([4]; AdoEnYn): 10%; m^7GpppA transformed ([4]; AdoPropen): 95%; TTN [4, 5]: 10
4 | B2 | – | 1 | –
5 | B3 | – | 8 | –
6 | B4 | 49.0 | 6 | –
7 | B5 | 44.8 | 5 | –
8 | B6 | 39.9 ± 0.2 | 3 ± 2 | T50 (15 min) [3]: 39.9 ± 0.2 °C; TTN [4, 5]: 3
9 | B7 | – | 2 | –
10 | B8 | – | 1 | –

Reference: patent US20160032257A1, “AGENT AND METHOD FOR MODIFYING THE 5' CAP OF RNA” (UNIVERSITÄT HAMBURG, priority 2012, published 2016)
